Consider five molecules from patent WO2013139956A1 (dated 2013).

Like-named read-outs stand apart in the source and are kept apart here. Ends that are not written are not given here. * marks the point of attachment. Biotin = O=C1N[C@H]2[C@H](CS[C@H]2CCCCC(=O)*)N1

Experiment [1] has as its target T1, peptide … (SEQ ID NO:77), N-terminally biotinylated (human).
T1 sequence (peptide, N-terminally biotinylated): EISQEVAADVFPSY
Briefly: ELISA, biotin-peptide on neutravidin plate, antibody 1 ug/ml. For orientation: An ELISA detects its analyte on a solid surface through an enzyme-linked reagent.

Experiment [2] deals with peptide … (SEQ ID NO:86), N-terminally biotinylated (human). Described as above.
Experiment [3] deals with peptide … (SEQ ID NO:76), N-terminally biotinylated (human). The description is as above.
The target in experiment [4] is T2, peptide … (SEQ ID NO:74), N-terminally biotinylated (human).
T2 sequence (peptide, N-terminally biotinylated): EISQEVAGDVFPSY
Described as above.

Experiment [5] has as its target T3, peptide … (SEQ ID NO:51), N-terminally biotinylated (human).
T3 sequence (peptide, N-terminally biotinylated): EISQEVRGDVFPSY
The experiment is described as above.

Experiment [6] has as its target peptide … (SEQ ID NO:78), N-terminally biotinylated (human). The description is as above.
Experiment [7] addresses peptide … (SEQ ID NO:85), N-terminally biotinylated (human). Described as above.
Experiment [8] has as its target peptide … (SEQ ID NO:83), N-terminally biotinylated (human). The description is as above.
Experiment [9] has as its target peptide … (SEQ ID NO:80), N-terminally biotinylated (human). The experiment is described as above.
Experiment [10] concerns the target peptide … (SEQ ID NO:81), N-terminally biotinylated (human). The experiment is described as above.
For experiment [11], the target named is peptide … (SEQ ID NO:82), N-terminally biotinylated (human). Described as above.
Experiment [12] deals with T4, peptide … (SEQ ID NO:75), N-terminally biotinylated (human).
T4 sequence (peptide, N-terminally biotinylated): EISQEVRADVFPSY
The description is as above.

Experiment [13] concerns the target peptide … (SEQ ID NO:84), N-terminally biotinylated (human). Described as above.
For experiment [14], the target named is peptide … (SEQ ID NO:79), N-terminally biotinylated (human). Described as above.
Experiment [15] deals with T5, peptide EISQEVAAAVFPSY (SEQ ID NO:80), N-terminally biotinylated (human).
T5 peptide: Biotin-EISQEVAAAVFPSY
Described as above.

For experiment [16], the target named is T6, peptide DVFPSYTCTCLKGY (SEQ ID NO:85), N-terminally biotinylated (human, cysteine pairing not given here).
T6 construct: Human lactadherin 14-mer with part of the RGD domain at the N-terminus
T6 peptide: Biotin-DVFPSYTCTCLKGY
Described as above.

Experiment [17] concerns the target T7, peptide HNGGLCEEISQEVR (SEQ ID NO:82), N-terminally biotinylated (human).
T7 construct: Human lactadherin 14-mer with part of the RGD domain at the C-terminus
T7 peptide: Biotin-HNGGLCEEISQEVR
The description is as above.

The target in experiment [18] is T8, peptide EISQEVAGAVFPSY (SEQ ID NO:79), N-terminally biotinylated (human).
T8 peptide: Biotin-EISQEVAGAVFPSY
The description is as above.

Experiment [19] deals with T9, peptide GDVFPSYTCTCLKG (SEQ ID NO:84), N-terminally biotinylated (human, cysteine pairing not given here).
T9 construct: Human lactadherin 14-mer with part of the RGD domain at the N-terminus
T9 peptide: Biotin-GDVFPSYTCTCLKG
Described as above.

The target of experiment [20] is T10, peptide EISQEVRADVFPSY (SEQ ID NO:75), N-terminally biotinylated (human).
T10 peptide: Biotin-EISQEVRADVFPSY
The description is as above.

For experiment [21], the target named is T11, peptide NGGLCEEISQEVRG (SEQ ID NO:81), N-terminally biotinylated (human).
T11 construct: Human lactadherin 14-mer with part of the RGD domain at the C-terminus
T11 peptide: Biotin-NGGLCEEISQEVRG
Described as above.

Experiment [22] deals with T12, peptide VFPSYTCTCLKGYA (SEQ ID NO:86), N-terminally biotinylated (human, cysteine pairing not given here).
T12 peptide: Biotin-VFPSYTCTCLKGYA
The experiment is described as above.

For experiment [23], the target named is T13, peptide EISQEVAGDVFPSY (SEQ ID NO:74), N-terminally biotinylated (human).
T13 peptide: Biotin-EISQEVAGDVFPSY
The description is as above.

In experiment [24] the target is T14, peptide EISQEVAADVFPSY (SEQ ID NO:77), N-terminally biotinylated (human).
T14 peptide: Biotin-EISQEVAADVFPSY
The description is as above.

The target of experiment [25] is T15, peptide CHNGGLCEEISQEV (SEQ ID NO:83), N-terminally biotinylated (human, cysteine pairing not given here).
T15 peptide: Biotin-CHNGGLCEEISQEV
Described as above.

Experiment [26] has as its target T16, peptide EISQEVRGAVFPSY (SEQ ID NO:76), N-terminally biotinylated (human).
T16 peptide: Biotin-EISQEVRGAVFPSY
Described as above.

Experiment [27] has as its target T17, peptide EISQEVRAAVFPSY (SEQ ID NO:78), N-terminally biotinylated (human).
T17 peptide: Biotin-EISQEVRAAVFPSY
The description is as above.

A further experiment has as its target T18, human lactadherin (human, UniProt Q08431 24-387).
T18 sequence (looked up): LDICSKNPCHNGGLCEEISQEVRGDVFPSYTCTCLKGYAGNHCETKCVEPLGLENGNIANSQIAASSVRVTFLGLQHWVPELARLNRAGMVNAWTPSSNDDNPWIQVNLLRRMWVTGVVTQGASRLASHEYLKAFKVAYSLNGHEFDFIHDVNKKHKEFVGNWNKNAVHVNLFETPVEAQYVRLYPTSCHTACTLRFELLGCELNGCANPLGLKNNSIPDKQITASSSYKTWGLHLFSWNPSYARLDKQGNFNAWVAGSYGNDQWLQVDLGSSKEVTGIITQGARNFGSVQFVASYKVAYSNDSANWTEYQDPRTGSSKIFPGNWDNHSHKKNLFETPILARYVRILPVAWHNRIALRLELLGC
The experiment is described as follows: cell-based or functional assay.

For experiment [28], the target named is T1, peptide … (SEQ ID NO:77), N-terminally biotinylated (human). The experiment is described as follows: ELISA, biotin-peptide on neutravidin plate, antibody 1 ug/ml. The source holds these as a separate data set.
Experiment [29] has as its target T2, peptide … (SEQ ID NO:74), N-terminally biotinylated (human). The description is as above. The source holds these as a separate data set.
Experiment [30] deals with T3, peptide … (SEQ ID NO:51), N-terminally biotinylated (human). The experiment is described as above. This is another data set of the same source.
In experiment [31] the target is T4, peptide … (SEQ ID NO:75), N-terminally biotinylated (human). The description is as above. The source holds these as a separate data set.

In the case of “rabbit polyclonal antibody preparation raised against amino acids 56-190 of murine MFG-E8 (Santa Cruz sc-33546)”, the absorbance 450 nm minus 540 nm in experiment [1] is 0.24 absorbance; in [2] it was 0.34 absorbance; in experiment [3], 0.24 absorbance; in experiment [4], 0.24 absorbance; in experiment [5], 0.28 absorbance; in experiment [6] it was 0.28 absorbance. For the same molecule, the absorbance 450 nm minus 540 nm turned out to be 0.41 absorbance in [7]; 0.24 absorbance in [8]; 0.31 absorbance in experiment [9]; 0.27 absorbance in experiment [10]; 0.24 absorbance in [11]; 0.22 absorbance in [12]. For the same molecule, the results for the absorbance 450 nm minus 540 nm in experiment [13] and in experiment [14] were 0.29 absorbance and 0.28 absorbance, respectively.

B1: huMc3 antibody (antibody, V domains shown)
VH: EVQLVQSGAEVKKPGASVKVSCKASGYSFTGYTMHWVKQSPGMNLEWIGLINPYNGGTVYNQKFQDKATLTVDKSTSTAYMELSSLRSEDTAVYFCARRWRYTMDYWGQGTLVTVSS
VL: DIVMTQSPDSLAVSLGERATITCKASQDVSIGVAWYQQKPGQSPKLLIYSASSRYTGVPDRFSGSGSGTDFTLTISSLQAEDVAVYYCQQHYTSPFTFGSGTKVEIK
Regarding B1, the “absorbance 450 nm minus 540 nm” value came to 0.04 absorbance in [15]; 0.09 absorbance in experiment [16]; 0.08 absorbance in experiment [17]; 0.04 absorbance in experiment [18]; 0.08 absorbance in experiment [19]; 0.03 absorbance in experiment [20]. For the same molecule, the “absorbance 450 nm minus 540 nm” value in experiment [21] was 0.09 absorbance; in [22] it was 0.07 absorbance; in experiment [23], 0.04 absorbance; in [24], 0.05 absorbance; in experiment [25] it was 0.09 absorbance; in experiment [26], 0.06 absorbance. The “absorbance 450 nm minus 540 nm” value in experiment [27] worked out at 0.06 absorbance. The “IC50 (nM), inhibition of cell adhesion to human lactadherin” value in the experiment with human lactadherin amounted to 6.48 nM. The “inhibition of SKOV-3 cell adhesion to coated human lactadherin, antibody at 5 ug/mL” value (shortened to “inhibition of SKOV-3 cell adhesion”) in the experiment with human lactadherin was above 70%.

B2: anti-lactadherin antibody 416H9 (antibody, IgG1, V domains shown)
VH: QVTLKESGPGVLQSSQTLSLTCSFSGFSLSTSGLGVIWIRQPSGAGLEWLAQIYWDDNKRYNPSLKSRLTISKDTSRNQVFLKITPVDTADTATYYCARRTFYDYDEGFYAMDYWGQGTSVTVSS
VL: DIQMTQTTSSLSASLGDRVTITCRASQDISNYLNWYQQKPDGTIKLLIYYASRLHSGVPSRFSGSGSGTDYSLTISNLEQEDIATYFCQQGNTLPLTFGAGTKLELKR
notes: also called hybridoma 416H9; LMBP 9492CB
Consider B2, for which the “absorbance 450 nm minus 540 nm” value amounted to 0.02 absorbance in [15]; 0.03 absorbance in [16]; 0.03 absorbance in experiment [17]; 0.05 absorbance in experiment [18]; 0.03 absorbance in experiment [19]; 0.02 absorbance in experiment [21]. Further, the “absorbance 450 nm minus 540 nm” value in experiment [22] was determined as 0.03 absorbance; in experiment [25] it was 0.03 absorbance; in [26] it was 0.02 absorbance; in experiment [27] it was 0.02 absorbance; in [28] it was 0.19 absorbance; in experiment [29], 0.25 absorbance. The absorbance 450 nm minus 540 nm in experiment [30] stood at 1.76 absorbance; in experiment [31], 0.7 absorbance. In addition, the “decrease of SKOV-3 cell migration towards lactadherin, antibody at 5 ug/mL” value in the experiment with human lactadherin is above 80%. For the same molecule, in the experiment with human lactadherin, the “inhibition of SKOV-3 cell adhesion” value is above 70%.

B3: anti-lactadherin antibody 346B6 (antibody, IgG1, V domains shown)
VH: EFQLQQSGPELVKPGASVRISCKASGYSFTDYNMNWVKQSDGKTLEWIGVINPDYGTTNNNQRFRGKATLTLDLSSSTAYMQLNSLTSEDSAVYYCARGGDYGAGYALDYWGQGTSVTVSS
VL: QIVLTQSPAIMSASPGEKVTMTCSASSSVSYMYWYQQKPGSSPRLLIYDTSNLASGVPVRFSGSGSGTSYSLTISRMEAEDAATYYCQQWSSYPPTFGAGTKLELKR
notes: VH identical to that of 311A7; also called hybridoma 346B6; LMBP 9490CB
In the case of B3, the “absorbance 450 nm minus 540 nm” value in [15] is 0.01 absorbance; in experiment [16], 0.03 absorbance; in experiment [17], 0.02 absorbance; in experiment [18], 0.07 absorbance; in experiment [19], 0.02 absorbance; in experiment [20], 0.01 absorbance. Moreover, the “absorbance 450 nm minus 540 nm” value in [21] is 0.02 absorbance; in experiment [22] it was 0.03 absorbance; in [23], 0.02 absorbance; in experiment [24], 0.01 absorbance; in experiment [25], 0.02 absorbance; in experiment [26], 0.02 absorbance. Moreover, the “absorbance 450 nm minus 540 nm” value stood at 0.02 absorbance in [27] and 1 absorbance in experiment [30]. Moreover, the “inhibition of SKOV-3 cell adhesion” value with human lactadherin amounted to 25%.

B4: anti-lactadherin antibody 311A7 (antibody, IgG1, V domains shown)
VH: B3 VH
VL: QIVLTQSPAIMSASPGEKVTITCSASSSVSYMYWFQQKPGTSPKLWIYSTSNLASGVPARFSGSGSGTSYSLTISRMEAEDAATYYCQQRSSYPRTFGGGTKLEIKR
notes: also called murine 311A7; hybridoma 311A7
As to B4, the “absorbance 450 nm minus 540 nm” value was determined as 0.02 absorbance in experiment [15]; 0.02 absorbance in experiment [16]; 0.02 absorbance in experiment [17]; 0.05 absorbance in [18]; 0.02 absorbance in experiment [19]; 0.01 absorbance in experiment [20]. Moreover, the “absorbance 450 nm minus 540 nm” value was 0.01 absorbance in experiment [21]; 0.02 absorbance in [22]; 0.02 absorbance in experiment [23]; 0.01 absorbance in [24]; 0.02 absorbance in [25]; 0.01 absorbance in experiment [26]. Also, the figures for the “absorbance 450 nm minus 540 nm” value in [27] and in experiment [30] were 0.02 absorbance and 1.47 absorbance, respectively. In addition, in the experiment with human lactadherin, the “IC50 (nM), inhibition of cell adhesion to human lactadherin” value is 7.36 nM. In the experiment with human lactadherin, the “decrease of SKOV-3 cell migration towards lactadherin, antibody at 5 ug/mL” value is above 80%. Besides, the “inhibition of SKOV-3 cell adhesion” value with human lactadherin is above 70%.
